In data set [1] the target is GII.4 CHDC-1974 norovirus major capsid protein VP1, assembled as virus-like particles (VLPs) (human norovirus GII.4 (CHDC-1974)). Description: cryo-EM structure.
The data set “cryo-EM structure” deals with the molecule itself. Description: cryo-EM structure.

Experimental findings from article doi:10.1101/528240 (bioRxiv, 2019) are described below.

As to “GII.4 CHDC-1974 norovirus major capsid protein VP1, assembled as virus-like particles (VLPs) (natural protein)”, in data set [1], the stoichiometry N is 240.

B1: GII.4 NSW-2012 norovirus major capsid protein VP1, assembled as virus-like particles (VLPs) (natural protein, human norovirus GII.4 (NSW-2012), UniProt K4LM89 1-540, looked up)
chain: MKMASSDANPSDGSAANLVPEVNNEVMALEPVVGAAIAAPVAGQQNVIDPWIRNNFVQAPGGEFTVSPRNAPGEILWSAPLGPDLNPYLSHLARMYNGYAGGFEVQVILAGNAFTAGKVIFAAVPPNFPTEGLSPSQVTMFPHIVVDVRQLEPVLIPLPDVRNNFYHYNQSNDPTIKLIAMLYTPLRANNAGDDVFTVSCRVLTRPSPDFDFIFLVPPTVESRTKPFSVPVLTVEEMTNSRFPIPLEKLFTGPSSAFVVQPQNGRCTTDGVLLGTTQLSPVNICTFRGDVTHITGSRNYTMNLASQNWNDYDPTEEIPAPLGTPDFVGKIQGVLTQTTRTDGSTRGHKATVYTGSADFAPKLGRVQFETDTDRDFEANQNTKFTPVGVIQDGGTTHRNEPQQWVLPSYSGRNTHNVHLAPAVAPTFPGEQLLFFRSTMPGCSGYPNMDLDCLLPQEWVQYFYQEAAPAQSDVALLRFVNPDTGRVLFECKLHKSGYVTVAHTGQHDLVIPPNGYFRFDSWVNQFYTLAPMGNGTGRRRAV
B1: the “stoichiometry N” value in the data set “cryo-EM structure” is 240.

In general, stoichiometry N refers to the number of molecules, sites or subunits per partner or assembly.
